Patent US20240092926A1 (ONCORESPONSE, published 2024)
Positions count from the first letter of the chain named. One block for each binder: values may come before it.

How the values were obtained:
[1] = molecular target: T1, His-tagged recombinant human CD163 (R&D Systems, No. 1607-CD-050) (human, UniProt Q86VB7 46-1050, limits assumed); assay: ELISA, His-tagged recombinant human CD163 coated; ratio of EC50 against AB101
T1 construct: Bought protein; also called recombinant CD163 protein; huCD163; not shown: His tag
Experimental: (§1) CD163 variant antibody binding to His-tagged recombinant human CD163 (R&D Systems, No. 1607-CD-050) protein was determined using ELISA. Recombinant protein was diluted in PBS to 5 μg/mL and added to 384-well high-binding ELISA plates (Greiner Bio-One, No. 781061) at 25 μL per well and incubated at 4° C. overnight. The plates were washed three times with PBS, using a BioTek ELx405 Select microplate washer (wash program ELISA_384_PBS_3×_wash) and then blocked with 90 μL/well of blocking buffer (2% nonfat, dry milk/PBS+0.05% Tween 20) for 1 hour at RT.
After blocking, 25 μL per well of primary antibodies were added to the plates and incubated for 1 hour at RT. […] After primary antibody binding, plates were washed three times with PBS using the EL405× (wash program ELISA_384_PBS 3×_wash). The secondary antibody was a goat anti-human IgG F(ab′)₂ HRP (Jackson Immunoresearch, No. 109-035-097). Secondary antibody was diluted to 1:2500 in 2% nonfat, dry milk/PBS, and 25 μL per well was added to the wells and incubated at RT for 1 hour. The plates were washed four times with PBS, using the EL405× (wash program ELISA_384_PBS_4× wash). […] After development, the reaction was stopped by adding 25 μL per well of 0.3 M HCl and plates were read using a SpectraMax M5e instrument at 450 nm.

[2] = molecular target: T1, His-tagged recombinant human CD163 (R&D …); assay: ELISA, His-tagged recombinant human CD163 coated at 5 µg/mL
Experimental: as §1
(§2) After blocking, 25 μL per well of primary antibodies were added to the plates and incubated for 1 hour at RT. […] After primary antibody binding, plates were washed three times with PBS using the EL405× (wash program ELISA_384_PBS 3×_wash). The secondary antibody was a goat anti-human IgG F(ab′)₂ HRP (Jackson Immunoresearch, No. 109-035-097). Secondary antibody was diluted to 1:2500 in 2% nonfat, dry milk/PBS, and 25 μL per well was added to the wells and incubated at RT for 1 hour. The plates were washed four times with PBS, using the EL405× (wash program ELISA_384_PBS_4× wash). After removal of the final wash, 25 μL/well of neat I-Step™ Ultra TMB-ELISA Substrate Solution (ThermoFisher, No. 34028) was added and the plates were incubated for 10-15 minutes at RT protected from light. After development, the reaction was stopped by adding 25 μL per well of 0.3 M HCl and plates were read using a SpectraMax M5e instrument at 450 nm.

[3] = molecular target: T2, Biotin-labeled human CD163 (human, UniProt Q86VB7 42-1050, limits assumed, biotin-labeled (sites not given)); assay: BLI (Octet RED96), b-huCD163 on SA biosensor, ratio of KD against AB101 parental Ab
T2 construct: Biotinylated form of the human CD163 antigen, immobilised on SA biosensors for BLI; also called b-huCD163; Human CD163 Protein (biotinylated)

[4] = molecular target: T1, His-tagged recombinant human CD163 (R&D …); assay: ELISA, plate coated with His-tagged recombinant human CD163 at 5 µg/mL, detection with anti-human IgG F(ab')2-HRP, A450; log axis in nM
Experimental: as §1, §2

[5] = molecular target: T2, Biotin-labeled human CD163; assay: BLI (Octet RED96), b-huCD163 on SA biosensor, Ab at 6.25/12.5/25/50 nM
Experimental: The SA sensors were placed in the PBS buffer for 15 minutes. Different solutions were added to a 96-well plate according to the following orders, with 200 μL per well.

[6] = molecular target: T1, His-tagged recombinant human CD163 (R&D …); assay: ratio of the KD values of Table 6 (AB101 parental Ab KD over clone 4 KD); the method is not shown in the excerpt
[7] = molecular target: T2, Biotin-labeled human CD163; assay: BLI (Octet RED96), b-huCD163 on SA biosensor, one Ab concentration 50.0 nM
[8] = molecular target: T3, human CD163 expressed on cells (SU-DHL-1 lymphoma cells, M2c macrophages, monocytes and dendritic cells of … (human, UniProt Q86VB7 42-1114)); assay: cell-based or functional assay
[9] = molecular target: T3, human CD163 expressed on cells …; assay: cell-based or functional assay; remark: listed apart in the source
[10] = molecular target: T3, human CD163 expressed on cells …; assay: flow cytometry on whole blood, DCs, APC-labeled antibody
Experimental: (§3) Antibody binding to human immune cell lineage subsets was assessed by flow cytometry. Briefly, whole blood with heparin as an anticoagulant was obtained (Bloodworks Northwest). Fc-receptor blocking reagent was directly added to whole blood to a final concentration of 10% FBS, 0.5 mg/mL human IgG1 and 0.05% NaN₃ in a final sample volume of 400 μL. […] After 30 minutes, red blood cells (RBC) were lysed with RBC lysis buffer, followed by Zombie UV viability staining. Then, cells were washed with FACS buffer (PBS containing 1% FBS, 2 mM EDTA, and 0.05% NaN₃) and resuspended in FACS buffer containing 10% FBS and 10% FcX block. Then, the antibody phenotyping cocktail (Table 8a) was added and incubated at room temperature for 30 minutes in the dark. Cells were washed with FACS buffer and resuspended in FACS buffer data acquisition using a FACSymphony™ Cytometer (BD BioSciences). Analysis was performed using FlowJo software. Populations were identified according to gating parameters as described in Table 8b.

[11] = molecular target: T3, human CD163 expressed on cells …; assay: flow cytometry on whole blood, nonclassical monocytes, APC-labeled antibody
Experimental: as §3

[12] = molecular target: T3, human CD163 expressed on cells …; assay: cell-based or functional assay; remark: listed apart in the source
[13] = molecular target: T3, human CD163 expressed on cells …; assay: cell-based or functional assay; remark: listed apart in the source
[14] = molecular target: T3, human CD163 expressed on cells …; assay: flow cytometry on whole blood, intermediate monocytes, APC-labeled antibody
Experimental: as §3

[15] = molecular target: T3, human CD163 expressed on cells …; assay: flow cytometry on whole blood, classical monocytes, APC-labeled antibody
Experimental: as §3

T1 sequence (Q86VB7 46-1050 limits assumed): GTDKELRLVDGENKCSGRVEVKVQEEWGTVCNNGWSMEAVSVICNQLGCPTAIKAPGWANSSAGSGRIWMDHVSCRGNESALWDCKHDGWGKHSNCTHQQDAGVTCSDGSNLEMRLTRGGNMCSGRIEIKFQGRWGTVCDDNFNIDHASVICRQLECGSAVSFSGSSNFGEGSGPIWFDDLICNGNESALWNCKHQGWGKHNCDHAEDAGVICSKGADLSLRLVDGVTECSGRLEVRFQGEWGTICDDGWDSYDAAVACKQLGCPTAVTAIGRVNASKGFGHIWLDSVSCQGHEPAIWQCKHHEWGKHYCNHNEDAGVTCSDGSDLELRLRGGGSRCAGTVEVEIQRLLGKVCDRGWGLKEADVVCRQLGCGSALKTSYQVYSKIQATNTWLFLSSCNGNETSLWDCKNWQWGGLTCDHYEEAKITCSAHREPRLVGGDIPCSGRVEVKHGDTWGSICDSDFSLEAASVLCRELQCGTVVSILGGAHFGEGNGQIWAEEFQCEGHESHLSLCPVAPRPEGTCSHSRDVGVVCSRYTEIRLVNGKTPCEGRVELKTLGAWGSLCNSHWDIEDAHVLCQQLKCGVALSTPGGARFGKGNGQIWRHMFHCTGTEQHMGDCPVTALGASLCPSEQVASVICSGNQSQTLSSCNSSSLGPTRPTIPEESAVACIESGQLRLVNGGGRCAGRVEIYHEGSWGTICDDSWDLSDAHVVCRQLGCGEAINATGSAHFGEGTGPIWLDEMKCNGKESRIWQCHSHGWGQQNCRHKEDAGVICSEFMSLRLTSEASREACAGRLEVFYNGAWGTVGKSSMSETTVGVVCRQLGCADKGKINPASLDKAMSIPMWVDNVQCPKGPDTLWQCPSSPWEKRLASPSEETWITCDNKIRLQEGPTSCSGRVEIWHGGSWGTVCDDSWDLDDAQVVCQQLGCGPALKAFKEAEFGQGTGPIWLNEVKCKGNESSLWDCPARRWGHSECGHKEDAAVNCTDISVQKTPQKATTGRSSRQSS
T2 sequence (Q86VB7 42-1050 limits assumed): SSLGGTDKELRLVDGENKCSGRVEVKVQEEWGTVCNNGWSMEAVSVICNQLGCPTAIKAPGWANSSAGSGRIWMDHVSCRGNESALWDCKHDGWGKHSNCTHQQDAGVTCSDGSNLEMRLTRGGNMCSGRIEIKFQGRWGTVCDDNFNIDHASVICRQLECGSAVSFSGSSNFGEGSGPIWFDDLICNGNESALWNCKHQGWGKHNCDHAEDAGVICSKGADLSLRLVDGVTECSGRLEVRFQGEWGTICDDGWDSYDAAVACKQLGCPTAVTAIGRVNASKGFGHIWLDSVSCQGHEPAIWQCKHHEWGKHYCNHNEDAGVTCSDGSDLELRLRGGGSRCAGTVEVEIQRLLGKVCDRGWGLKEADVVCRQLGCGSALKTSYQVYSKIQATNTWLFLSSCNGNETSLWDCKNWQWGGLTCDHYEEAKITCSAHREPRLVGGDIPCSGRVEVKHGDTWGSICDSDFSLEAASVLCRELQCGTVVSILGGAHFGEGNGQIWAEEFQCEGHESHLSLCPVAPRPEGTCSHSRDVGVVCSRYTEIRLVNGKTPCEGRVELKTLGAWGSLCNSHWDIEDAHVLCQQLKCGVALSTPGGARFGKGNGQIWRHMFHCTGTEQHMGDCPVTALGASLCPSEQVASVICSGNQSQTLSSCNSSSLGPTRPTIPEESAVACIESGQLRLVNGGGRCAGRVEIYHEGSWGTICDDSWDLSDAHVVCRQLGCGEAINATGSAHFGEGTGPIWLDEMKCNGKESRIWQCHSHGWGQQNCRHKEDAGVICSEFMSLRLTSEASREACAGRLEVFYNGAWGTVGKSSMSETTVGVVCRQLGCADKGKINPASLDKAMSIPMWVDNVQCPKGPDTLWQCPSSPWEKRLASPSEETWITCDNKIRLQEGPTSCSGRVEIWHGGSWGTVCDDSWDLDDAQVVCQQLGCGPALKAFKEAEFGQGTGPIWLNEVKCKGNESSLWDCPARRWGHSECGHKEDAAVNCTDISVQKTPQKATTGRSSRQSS
T3 sequence (Q86VB7 other isoform, or with tags, fused parts or gaps limits assumed): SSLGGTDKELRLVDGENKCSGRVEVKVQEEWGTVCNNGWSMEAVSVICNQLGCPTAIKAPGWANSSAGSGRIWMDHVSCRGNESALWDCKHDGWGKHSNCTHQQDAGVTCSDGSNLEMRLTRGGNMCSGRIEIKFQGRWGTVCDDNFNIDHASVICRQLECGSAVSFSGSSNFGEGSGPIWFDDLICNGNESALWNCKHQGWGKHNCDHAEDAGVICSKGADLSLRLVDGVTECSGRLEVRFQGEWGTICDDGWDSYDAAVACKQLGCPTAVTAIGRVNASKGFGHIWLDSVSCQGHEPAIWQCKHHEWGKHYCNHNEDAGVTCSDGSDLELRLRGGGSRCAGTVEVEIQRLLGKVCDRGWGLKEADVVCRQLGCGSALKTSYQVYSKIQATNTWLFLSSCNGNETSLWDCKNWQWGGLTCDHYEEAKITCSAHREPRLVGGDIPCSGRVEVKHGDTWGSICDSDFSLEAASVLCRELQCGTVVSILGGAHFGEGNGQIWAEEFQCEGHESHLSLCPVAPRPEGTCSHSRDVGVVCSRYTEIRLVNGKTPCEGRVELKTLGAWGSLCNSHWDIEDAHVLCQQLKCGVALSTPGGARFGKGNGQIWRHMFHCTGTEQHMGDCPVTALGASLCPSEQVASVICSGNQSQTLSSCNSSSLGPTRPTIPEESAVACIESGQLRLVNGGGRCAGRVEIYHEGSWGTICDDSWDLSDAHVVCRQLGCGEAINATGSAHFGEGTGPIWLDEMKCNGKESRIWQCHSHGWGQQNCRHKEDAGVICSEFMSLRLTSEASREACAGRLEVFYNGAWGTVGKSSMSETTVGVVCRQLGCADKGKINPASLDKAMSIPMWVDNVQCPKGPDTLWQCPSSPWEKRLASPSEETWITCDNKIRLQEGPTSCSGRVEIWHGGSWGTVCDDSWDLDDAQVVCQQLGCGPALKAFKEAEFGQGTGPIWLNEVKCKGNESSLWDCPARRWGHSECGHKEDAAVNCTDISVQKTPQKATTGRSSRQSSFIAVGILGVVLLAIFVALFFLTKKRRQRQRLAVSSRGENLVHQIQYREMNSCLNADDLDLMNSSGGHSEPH

B1: Variant 4 (V4) (antibody, V domains shown)
VH: EVQLVESGGGVVQPGRSLRLSCAASGFTFSSYVMHWVRQAPGKGLEWVAVISEDGSNKYNADSVKGRFTISRDNSKNTLYLQMNSLRAEDTAVYYCARENVRPYYDFWSGYSSEYYYYGLDVWGQGTTVTVSS
VL: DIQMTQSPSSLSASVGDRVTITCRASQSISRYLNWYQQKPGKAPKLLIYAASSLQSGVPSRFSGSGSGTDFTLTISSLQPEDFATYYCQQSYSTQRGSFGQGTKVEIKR
notes: also called clone 4
fold stronger binding than AB101 parental antibody (EC50) [1]: 27 to 45 fold
EC50 [2]: 3.05 nM
Affinity enhancement compared to parental Ab [3]: 3760 fold
EC50 (read off the curve) [4]: ~0.003 nM
Kd [5]: 0.176 nM
koff [5]: 0.000393 s⁻¹
kon [5]: 2.23e+06 M⁻¹ s⁻¹
fold affinity enhancement compared to AB101 parental Ab [6]: ~3760 fold
Kd [7]: 0.824 nM
koff [7]: 0.000874 s⁻¹
kon [7]: 1.06e+06 M⁻¹ s⁻¹

B2: Variant 5 (V5) (antibody, V domains shown)
VH: B1 VH with V33D, S109R, S112N
VL: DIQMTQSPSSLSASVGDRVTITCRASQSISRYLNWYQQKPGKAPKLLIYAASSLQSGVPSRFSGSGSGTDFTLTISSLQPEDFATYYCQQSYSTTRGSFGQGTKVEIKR
EC50 [2]: 2.83 nM
EC50 (read off the curve) [4]: ~0.003 nM
Kd [7]: 1.03 nM
koff [7]: 0.000978 s⁻¹
kon [7]: 951000 M⁻¹ s⁻¹

B3: Variant 6 (V6) (antibody, V domains shown)
VH: B1 VH with Y32E, V33T
VL: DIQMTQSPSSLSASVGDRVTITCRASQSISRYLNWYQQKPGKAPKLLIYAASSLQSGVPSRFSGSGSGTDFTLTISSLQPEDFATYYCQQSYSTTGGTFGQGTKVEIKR
EC50 [2]: 2.68 nM
EC50 (read off the curve) [4]: ~0.003 nM
Kd [7]: 0.964 nM
koff [7]: 0.000887 s⁻¹
kon [7]: 921000 M⁻¹ s⁻¹

B5: Variant 3 (V3) (antibody, human IgG1, V domains shown)
VH: B1 VH with N60E, S109R, S112N
VL: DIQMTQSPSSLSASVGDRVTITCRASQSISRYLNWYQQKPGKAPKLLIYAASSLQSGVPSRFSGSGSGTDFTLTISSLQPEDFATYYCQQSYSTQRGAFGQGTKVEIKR
EC50 of antibody-elicited T cell proliferation (M2c/CD8+ T cell coculture) [8]: 0.27 nM
EC50 [2]: 2.79 nM
potency against AB101 in relieving M2c-mediated suppression of IFNγ release [9]: > 10 fold
potency against parental AB101 in relieving M2c-mediated suppression of CD8+ T cell proliferation [9]: ~40 fold
potency against parental AB101 in relieving M2c-mediated suppression of perforin secretion [9]: ~100 fold
fold increase of geometric MFI compared to AB101 [10]: 4.3 fold
fold increase of geometric MFI compared to AB101 [11]: 3 fold
EC50 of antibody-elicited perforin secretion (M2c/CD8+ T cell coculture) [12]: 0.33 nM
EC50 of antibody-elicited IFNγ secretion (M2c/T cell blast coculture) [13]: 0.47 nM
fold increase of geometric MFI compared to AB101 [14]: 9.2 fold
EC50 (read off the curve) [4]: ~0.003 nM
fold increase of geometric MFI compared to AB101 [15]: 9.8 fold
Kd [7]: 0.937 nM
koff [7]: 0.000925 s⁻¹
kon [7]: 987000 M⁻¹ s⁻¹

The next binders have a lower EC50 [2] than those just listed; values first:

EC50 [2]: 2.23 nM
EC50 (read off the curve) [4]: ~0.002 nM
Kd [7]: 0.991 nM
koff [7]: 0.00087 s⁻¹
kon [7]: 878000 M⁻¹ s⁻¹
B4: Variant 2 (V2) (antibody, V domains shown)
VH: B1 VH with Y32E, V33T, N60H, S112N, L120M
VL: DIQMTQSPSSLSASVGDRVTITCRASQSISRYLNWYQQKPGKAPKLLIYAASSLQNGVPSRFSGSGSGTDFTLTISSLQPEDFATYYCQQSYSTTRGSFGQGTKVEIKR

fold stronger binding than AB101 parental antibody (EC50) [1]: 27 to 45 fold
EC50 [2]: 1.87 nM
EC50 (read off the curve) [4]: ~0.002 nM
Kd [7]: 1.25 nM
koff [7]: 0.00112 s⁻¹
kon [7]: 895000 M⁻¹ s⁻¹
B6: Variant 1 (V1) (antibody, V domains shown)
VH: EVQLVESGGGVVQPGRSLRLSCAASGFTFSSYDMHWVRQAPGKGLEWVAVISEDGSNKYNADSVKGRFTISRDNSKNTLYLQMNSLRAEDTAVYYCARENVRPYYDFWSGYSSEYYYYGLDVWGQGTTVTVS
VL: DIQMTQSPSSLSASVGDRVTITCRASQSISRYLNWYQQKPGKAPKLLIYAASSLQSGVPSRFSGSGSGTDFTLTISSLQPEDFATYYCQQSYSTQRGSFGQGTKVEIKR
notes: The printed VH ends in TVS, one S shorter than the other variants
